US20140120109A1 (Regeneron, published 2014)
Residue numbers refer to the chain shown, from its start.

T1: human TL1A, soluble, CHO-expressed, residues 72-251 of SEQ ID NO:244 with N-terminal His6-tag (human, UniProt O95150 72-251)
T1 construct: also called hTL1A; hTL1A (CHO)
T1 sequence: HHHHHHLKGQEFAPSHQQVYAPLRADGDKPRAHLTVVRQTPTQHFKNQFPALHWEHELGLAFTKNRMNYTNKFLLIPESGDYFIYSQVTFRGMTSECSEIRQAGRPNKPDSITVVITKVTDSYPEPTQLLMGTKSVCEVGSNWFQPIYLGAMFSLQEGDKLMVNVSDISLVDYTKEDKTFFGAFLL

T2: cynomolgus monkey TL1A, soluble, CHO-expressed, residues 72-251 of SEQ ID NO:248 with N-terminal His6-tag (cynomolgus monkey (Macaca fascicularis), UniProt O95150 72-251 (human entry))
T2 construct: also called MfTL1A; MfTL1A (CHO)
T2 chain: T1 sequence with F45L, I84V

T3: full length human TL1A expressed on HEK293 cells (human, UniProt O95150 1-251)
T3 sequence: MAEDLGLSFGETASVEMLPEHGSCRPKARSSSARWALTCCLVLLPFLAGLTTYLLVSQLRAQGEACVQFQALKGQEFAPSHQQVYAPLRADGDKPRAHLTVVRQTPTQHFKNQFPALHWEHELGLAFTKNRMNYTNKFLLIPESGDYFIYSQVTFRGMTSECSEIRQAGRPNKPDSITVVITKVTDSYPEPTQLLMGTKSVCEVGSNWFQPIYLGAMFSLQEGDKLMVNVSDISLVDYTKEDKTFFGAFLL

T4: full-length cynomolgus monkey TL1A expressed on HEK293 cells (cynomolgus monkey (Macaca fascicularis), UniProt O95150 1-251 (human entry))
T4 chain: T3 sequence with R34C, F69L, A71D, F110L, I149V

T5: full-length Fhm, human TL1A(Q167R), expressed on HEK293 cells (human, UniProt O95150 1-251)
T5 sequence: T3 sequence with Q167R

B1: H4H1719P (antibody, human IgG4 S228P, V domains shown)
VH: EVQLVESGGGLVQPGRSLRLSCVASGFTFQDYAMHWVRQAPGKGLEWVSGINWISDDMGYADSVMGRFTISRDNAKNSLYLQMDSLRAEDTALYYCAKDKGLRFLDYVMDVWGQGTTVTVSA
VL: DIVMTQSPLSLPVTPGEPASISCRSTQSLLHRNGHNYLHWYLHKPGQSPQLLIHLGSNRASGVPDRFSGSGSGTDFTLKISRVEAEDVGVYYCMQALQTPYTFGQGTKLEIK
B2: H4H1725P (antibody, human IgG4 S228P, V domains shown)
VH: QVQLVQSGAEVKKPGASVKVSCKASGYTFTGYYMHWVRQAPGQGLEWMGWIKPKSGGTNYVQKFQGRVTMTRDTSINTAYMELNNLKSDDTAVYYCATGGSQDASDFWGQGTMVTVSS
VL: DIQMTQSPSSVSASVGGRVTITCRASQDISIWLAWYQQKPGKAPNLLIYAASSLQSGVPSRFSGSGSGTDFTLTISSLQPEDFATYYCQQADSFPLTFGGGTKVEIK
B3: H4H1738P (antibody, human IgG4 S228P, V domains shown)
VH: EVQLVESGGALVKPGGSLRLSCAVSGFTFINDWMNWVRQAPGKGLEWVGRIKSTTDGGTTDDAAPVKGRFTISRDDSKNTLYLQMNSLKTEDTAVYYCTRDRNRQRNYFYDGMDVWGQGTTVTVSA
VL: B1 VL with L9V, T26S, S28R, R32N, H35N, H39D, H43Q, H54Y, I80V
B4: H4H1742P (antibody, human IgG4 S228P, V domains shown)
VH: EVQLVESGGGLVQPGGSLRLSCAASGFTFSNYVMNWVRQAPGKGLEWVSVISGSGGSTHYADSVKGRFTISRDNSKDALYLQMNSLRAEDTAVYYCAKGPLEAYYYYNGMDVWGQGTTVTVSS
VL: DIQLTQSPSFLSASVGDRVTITCWASQAISSYLAWYQHKPGRAPKLLIYSTSTLQSGVPSRFSGSGSGTEFTLTISSLQPEDFATYYCQQLNSYPTFGQGTKLEIK
B5: H4H1745P (antibody, human IgG4 S228P, V domains shown)
VH: EVQLVESGGGLVQPGGSLRLSCAASGFTFSSYAMTWVRQAPGKGLEWVSGVSGRGGSTYYADSVKGRFTISRDNSKNTLYLQMNSLRAEDTAVYYCAYWDISSFDYWGQGTLVTVSS
VL: DIQLTQSPSFLSASVGDRVTITCWASQGISTYLAWYQQKPGKTPKLLIYAASTLQSGVPSRFSGSGSGTDFTLTISSLQPEDFATYYCQQFNSYPLTFGGGTKVEIK

Each binder was assayed against T1, human TL1A, soluble, CHO-expressed, … (assay: ELISA, blocks hTL1A (150 pM) binding hDR3-Fc).
Procedure, shortened: (§1)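 Competition sandwich ELISA: biotinylated CHO-expressed ligand (human TL1A, FHM Q167R variant, or cynomolgus TL1A) at fixed concentration preincubated with titrated antibody 1 h at 25 °C, then 1 h on hDR3-Fc or hDcR3-Fc coated wells. Bound ligand detected by streptavidin-HRP/TMB at 450 nm; sigmoidal dose-response fit.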
B1 gave an IC50 of 0.022 nM. Binder B2 has an IC50 of 0.015 nM. In the case of B3, the IC50 is reported as 0.069 nM. For B4, the IC50 was 0.064 nM. B5 was tested, and the IC50 was 0.018 nM.

The binders below were run against T1, human TL1A, soluble, CHO-expressed, … (assay: SPR 25C, mAb captured).
Procedure, shortened: (§2)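 Biacore T100 SPR with captured mAb and soluble TL1A/Fhm analyte; ka and kd fitted to a 1:1 model assuming monomeric TL1A. KD = kd/ka; t1/2 (min) = ln2/(60·kd).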
For B1, the Kd was 0.481 nM and the t1/2 was 44 min. For B2, the Kd was 0.0636 nM and the t1/2 was 185 min. With B3 the Kd was 0.608 nM and the t1/2 was 64 min. B4 gave a Kd of 0.0604 nM and a t1/2 of 755 min. In the case of B5, the Kd is reported as 0.164 nM and the t1/2 is reported as 172 min.

Biological target: T2, cynomolgus monkey TL1A, soluble, …
Test: SPR 25C, mAb captured
Procedure, shortened: as §2
B1 showed a Kd of 0.417 nM and a t1/2 of 45 min. For B2, the Kd was 0.346 nM and the t1/2 was 64 min. With B3 the Kd was 0.361 nM and the t1/2 was 93 min. B4 was tested, and the Kd was 0.115 nM and the t1/2 was 577 min. In the case of B5, the Kd is reported as 0.115 nM and the t1/2 is reported as 231 min.

Biological target: T2, cynomolgus monkey TL1A, soluble, …
Test: ELISA, blocks MfTL1A (50 pM) binding hDcR3-Fc
Procedure, shortened: as §1
Work on B1 yielded an IC50 of 0.061 nM. B2 was tested, and the IC50 was 0.145 nM. Work on B3 yielded an IC50 of 0.068 nM. Binder B4 has an IC50 of 0.127 nM. B5 showed an IC50 of 0.118 nM.

What follows are binders tested against T3, full length human TL1A expressed on … (assay: cell-based or functional assay).
B1 was tested, and the “IC50, reporter + 10,000 TL1A cells” value was 0.82 nM. For B2, the “IC50, reporter + 10,000 TL1A cells” value was 0.66 nM. With B3 the “IC50, reporter + 10,000 TL1A cells” value was 7.47 nM. In the case of B4, the “IC50, reporter + 10,000 TL1A cells” value is reported as 6.55 nM. In the case of B5, the “IC50, reporter + 10,000 TL1A cells” value is reported as 0.76 nM.

Biological target: T4, full-length cynomolgus monkey TL1A …
Test: cell-based or functional assay
With B1 the “IC50, reporter + 10,000 TL1A cells” value was 3 nM. In the case of B2, the “IC50, reporter + 10,000 TL1A cells” value is reported as 2.82 nM. B3 was tested, and the “IC50, reporter + 10,000 TL1A cells” value was 20.2 nM. In the case of B4, the “IC50, reporter + 10,000 TL1A cells” value is reported as 18.4 nM. In the case of B5, the “IC50, reporter + 10,000 TL1A cells” value is reported as 4.28 nM.

What follows are binders tested against T5, full-length Fhm, human TL1A(Q167R), … (assay: cell-based or functional assay).
For B1, the “IC50, reporter + 10,000 TL1A cells” value was 0.84 nM. In the case of B2, the “IC50, reporter + 10,000 TL1A cells” value is reported as 0.94 nM. B3 was tested, and the “IC50, reporter + 10,000 TL1A cells” value was 7.75 nM. B4 was tested, and the “IC50, reporter + 10,000 TL1A cells” value was 8.39 nM. With B5 the “IC50, reporter + 10,000 TL1A cells” value was 2.12 nM.

Biological target: T2, cynomolgus monkey TL1A, soluble, …
Test: ELISA, blocks MfTL1A (500 pM) binding hDR3-Fc
Procedure, shortened: as §1
For B1, the IC50 was 0.046 nM. In the case of B2, the IC50 is reported as 0.016 nM. For B3, the IC50 was 0.117 nM. Work on B4 yielded an IC50 of 0.24 nM. B5 was tested, and the IC50 was 0.05 nM.
